Measured values reported in patent US20140212379A1 (AbbVie / Abbott, published 2014).
Residue numbers refer to the chain shown, from its start. One block for each binder: values may come before it.

Columns and labels:
Experiment in all cases: cell-based or functional assay
[1] = biological target: Human mature IL-1β (human, UniProt P01584 117-269)
[2] = biological target: T1, Human mature IL-1α (human, UniProt P01583 113-271)
T1 sequence: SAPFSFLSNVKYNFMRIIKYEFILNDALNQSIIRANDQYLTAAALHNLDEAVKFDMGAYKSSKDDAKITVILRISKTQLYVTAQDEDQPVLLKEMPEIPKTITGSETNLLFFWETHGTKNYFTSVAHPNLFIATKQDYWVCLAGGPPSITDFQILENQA

[3] = biological target: T2, Cynomolgus IL-1α (cynomolgus, UniProt P79340 113-271)
T2 sequence (looked up): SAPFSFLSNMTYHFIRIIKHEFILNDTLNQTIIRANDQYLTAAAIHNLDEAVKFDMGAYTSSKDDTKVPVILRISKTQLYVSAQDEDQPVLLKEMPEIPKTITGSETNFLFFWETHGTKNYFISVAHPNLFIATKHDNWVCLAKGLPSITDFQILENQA

[4] = biological target: T3, Cynomolgus IL-1β (cynomolgus, UniProt P79182 117-268)
T3 sequence (looked up): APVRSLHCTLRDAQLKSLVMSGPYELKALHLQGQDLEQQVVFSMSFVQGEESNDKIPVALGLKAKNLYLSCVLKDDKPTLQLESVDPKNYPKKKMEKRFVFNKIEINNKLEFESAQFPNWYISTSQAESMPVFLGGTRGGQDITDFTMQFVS

Potency (pM), inhibition of IL-1-induced hIL-8 in MRC5 cells [1]: 1470 pM
Potency (pM), inhibition of IL-1-induced hIL-8 in MRC5 cells [2]: 8.9 pM
B1: X3-LL-E26.13 DVD-Ig (bispecific antibody, human IgG1, kappa, L234A L235A)
heavy: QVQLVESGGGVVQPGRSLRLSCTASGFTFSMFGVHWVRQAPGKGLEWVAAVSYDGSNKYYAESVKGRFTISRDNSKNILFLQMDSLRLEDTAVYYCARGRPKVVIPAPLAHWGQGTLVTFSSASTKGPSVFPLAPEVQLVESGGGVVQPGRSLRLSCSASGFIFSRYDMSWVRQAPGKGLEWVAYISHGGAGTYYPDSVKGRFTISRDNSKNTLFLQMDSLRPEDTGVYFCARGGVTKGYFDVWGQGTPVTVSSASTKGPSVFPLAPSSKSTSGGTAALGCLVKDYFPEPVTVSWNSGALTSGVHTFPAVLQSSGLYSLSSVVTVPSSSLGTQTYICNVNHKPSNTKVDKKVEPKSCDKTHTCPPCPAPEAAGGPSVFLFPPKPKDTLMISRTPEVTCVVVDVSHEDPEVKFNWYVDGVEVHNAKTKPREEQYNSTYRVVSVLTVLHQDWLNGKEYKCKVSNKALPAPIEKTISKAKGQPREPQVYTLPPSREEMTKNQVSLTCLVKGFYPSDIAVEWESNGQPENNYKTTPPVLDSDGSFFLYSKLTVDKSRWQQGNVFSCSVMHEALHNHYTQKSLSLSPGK
light: DIQMTQSPSSVSASVGDRVTITCRASQGISSWLAWYQQKPGKAPKLLIYEASNLETGVPSRFSGSGSGSDFTLTISSLQPEDFATYYCQQTSSFLLSFGGGTKVEHKRTVAAPSVFIFPPDIQMTQSPSSLSASVGDRVTITCRASGNIHNYLTWYQQTPGKAPKLLIYNAKTLADGVPSRFSGSGSGTDYTFTISSLQPEDIATYYCQHFWSIPYTFGQGTKLQITRTVAAPSVFIFPPSDEQLKSGTASVVCLLNNFYPREAKVQWKVDNALQSGNSQESVTEQDSKDSTYSLSSTLTLSKADYEKHKVYACEVTHQGLSSPVTKSFNRGEC

Potency (pM), inhibition of IL-1-induced hIL-8 in MRC5 cells [3]: 1880 pM
Potency (pM), inhibition of IL-1-induced hIL-8 in MRC5 cells [4]: 17.6 pM
Potency (pM), inhibition of IL-1-induced hIL-8 in MRC5 cells [2]: 26.5 pM
B2: E26.13-SS-X3 JM DVD-Ig (bispecific antibody, human IgG1, kappa, L234A L235A)
heavy: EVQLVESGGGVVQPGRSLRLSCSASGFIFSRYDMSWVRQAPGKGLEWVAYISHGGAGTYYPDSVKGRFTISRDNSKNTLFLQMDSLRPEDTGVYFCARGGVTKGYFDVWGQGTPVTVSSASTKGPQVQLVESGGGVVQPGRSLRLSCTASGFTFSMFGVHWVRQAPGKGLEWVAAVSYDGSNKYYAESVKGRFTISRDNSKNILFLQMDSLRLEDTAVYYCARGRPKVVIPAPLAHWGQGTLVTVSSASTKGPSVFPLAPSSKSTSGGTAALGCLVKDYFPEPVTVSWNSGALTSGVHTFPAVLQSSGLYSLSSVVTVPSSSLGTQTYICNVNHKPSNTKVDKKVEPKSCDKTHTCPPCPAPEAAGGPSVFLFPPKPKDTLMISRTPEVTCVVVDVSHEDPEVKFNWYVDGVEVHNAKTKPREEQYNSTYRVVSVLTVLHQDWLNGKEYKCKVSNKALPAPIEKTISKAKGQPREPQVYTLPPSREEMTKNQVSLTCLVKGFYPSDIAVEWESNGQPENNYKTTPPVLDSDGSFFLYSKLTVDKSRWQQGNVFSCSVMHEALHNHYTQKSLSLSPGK
light: DIQMTQSPSSLSASVGDRVTITCRASGNIHNYLTWYQQTPGKAPKLLIYNAKTLADGVPSRFSGSGSGTDYTFTISSLQPEDIATYYCQHFWSIPYTFGQGTKLQITRTVAAPDIQMTQSPSSVSASVGDRVTITCRASQGISSWLAWYQQKPGKAPKLLIYEASNLETGVPSRFSGSGSGSDFTLTISSLQPEDFATYYCQQTSSFLLSFGGGTKVEIKRTVAAPSVFIFPPSDEQLKSGTASVVCLLNNFYPREAKVQWKVDNALQSGNSQESVTEQDSKDSTYSLSSTLTLSKADYEKHKVYACEVTHQGLSSPVTKSFNRGEC

Potency (pM), inhibition of IL-1-induced hIL-8 in MRC5 cells [3]: 474 pM
Potency (pM), inhibition of IL-1-induced hIL-8 in MRC5 cells [1]: 1.8 pM
Potency (pM), inhibition of IL-1-induced hIL-8 in MRC5 cells [4]: 0.6 pM
Potency (pM), inhibition of IL-1-induced hIL-8 in MRC5 cells [2]: 25.8 pM
B3: E26.35-SS-X3 DVD-Ig (bispecific antibody, human IgG1, kappa, L234A L235A)
heavy: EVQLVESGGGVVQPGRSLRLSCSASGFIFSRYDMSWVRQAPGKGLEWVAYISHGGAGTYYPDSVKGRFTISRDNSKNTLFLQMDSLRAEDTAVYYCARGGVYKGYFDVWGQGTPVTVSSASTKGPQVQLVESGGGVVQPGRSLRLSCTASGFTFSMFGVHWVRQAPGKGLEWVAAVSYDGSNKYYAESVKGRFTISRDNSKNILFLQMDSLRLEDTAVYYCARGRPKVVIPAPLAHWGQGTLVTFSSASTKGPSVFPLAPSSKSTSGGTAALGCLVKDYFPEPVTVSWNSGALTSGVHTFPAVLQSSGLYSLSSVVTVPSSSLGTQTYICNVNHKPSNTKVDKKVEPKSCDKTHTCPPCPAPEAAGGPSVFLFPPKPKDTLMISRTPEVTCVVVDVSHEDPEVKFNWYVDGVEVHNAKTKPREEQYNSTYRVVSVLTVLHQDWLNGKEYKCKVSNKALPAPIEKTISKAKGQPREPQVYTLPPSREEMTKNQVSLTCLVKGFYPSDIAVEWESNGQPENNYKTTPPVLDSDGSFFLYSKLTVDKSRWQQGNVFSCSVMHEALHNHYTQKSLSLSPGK
light: B2 light with I219H

Potency (pM), inhibition of IL-1-induced hIL-8 in MRC5 cells [3]: 1050 pM
Potency (pM), inhibition of IL-1-induced hIL-8 in MRC5 cells [2]: 10.2 pM
B4: E26.13-LL-X3 DVD-Ig (bispecific antibody, human IgG1, kappa, L234A L235A)
heavy: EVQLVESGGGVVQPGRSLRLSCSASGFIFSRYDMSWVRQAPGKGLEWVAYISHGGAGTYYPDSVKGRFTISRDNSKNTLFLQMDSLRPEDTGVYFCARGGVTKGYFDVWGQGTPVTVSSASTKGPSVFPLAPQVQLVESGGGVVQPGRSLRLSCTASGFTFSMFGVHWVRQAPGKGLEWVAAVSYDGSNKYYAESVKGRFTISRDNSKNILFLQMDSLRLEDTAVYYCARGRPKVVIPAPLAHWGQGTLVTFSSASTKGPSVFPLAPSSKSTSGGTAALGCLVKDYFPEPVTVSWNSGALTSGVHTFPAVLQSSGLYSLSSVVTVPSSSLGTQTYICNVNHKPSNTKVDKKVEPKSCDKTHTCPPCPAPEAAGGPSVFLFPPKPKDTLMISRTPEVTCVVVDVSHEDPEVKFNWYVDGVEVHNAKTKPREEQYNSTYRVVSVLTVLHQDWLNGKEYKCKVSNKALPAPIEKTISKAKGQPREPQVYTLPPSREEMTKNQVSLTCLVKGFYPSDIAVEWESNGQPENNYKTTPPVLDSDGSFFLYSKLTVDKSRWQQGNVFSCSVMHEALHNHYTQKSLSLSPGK
light: DIQMTQSPSSLSASVGDRVTITCRASGNIHNYLTWYQQTPGKAPKLLIYNAKTLADGVPSRFSGSGSGTDYTFTISSLQPEDIATYYCQHFWSIPYTFGQGTKLQITRTVAAPSVFIFPPDIQMTQSPSSVSASVGDRVTITCRASQGISSWLAWYQQKPGKAPKLLIYEASNLETGVPSRFSGSGSGSDFTLTISSLQPEDFATYYCQQTSSFLLSFGGGTKVEHKRTVAAPSVFIFPPSDEQLKSGTASVVCLLNNFYPREAKVQWKVDNALQSGNSQESVTEQDSKDSTYSLSSTLTLSKADYEKHKVYACEVTHQGLSSPVTKSFNRGEC
